According to the array DNA melting data of Ke et al.:

Test: melting temperature; melt of duplexes
Settings: sodium 0.0675 M; strand 1 µM

| Substance | Tm [°C] |
| --- | --- |
| CGACGTGCCAAATGTGCTG+CAGCACATTAGGCACGTCG (((((((((.(((((((((+))))))))).))))))))) | 57.8 |
| CGACGTGCGGCATGTGCTG+CAGCACATCCCGCACGTCG ((((((((((.((((((((+)))))))).)))))))))) | 58.3 |
| CGACGTGCAGGATGTGCTG+CAGCACATGTGGCACGTCG ((((((((...((((((((+))))))))...)))))))) | 50.9 |
| CGACGTGCTTTATGTGCTG+CAGCACATACTGCACGTCG ((((((((..(((((((((+)))))))))..)))))))) | 50.3 |
| CGACGTGCTGGATGTGCTG+CAGCACATGGCGCACGTCG ((((((((...((((((((+))))))))...)))))))) | 49.6 |
| CGACGTGCTAAATGTGCTG+CAGCACATGAAGCACGTCG (((((((((..((((((((+))))))))..))))))))) | 54.6 |
| CGACGTGCTCAATGTGCTG+CAGCACATCTAGCACGTCG (((((((((..((((((((+))))))))..))))))))) | 51 |
| CGACGTGCTGAATGTGCTG+CAGCACATATCGCACGTCG ((((((((...((((((((+))))))))...)))))))) | 50.2 |
| CGACGTGCTATATGTGCTG+CAGCACATGCGGCACGTCG ((((((((...((((((((+))))))))...)))))))) | 49.4 |
| CGACGTGCAAGATGTGCTG+CAGCACATTCCGCACGTCG ((((((((...((((((((+))))))))...)))))))) | 49.4 |
| CGACGTGCAGCATGTGCTG+CAGCACATCCGGCACGTCG ((((((((.(.((((((((+)))))))).).)))))))) | 49 |
| CGACGTGCGAAATGTGCTG+CAGCACATAGAGCACGTCG ((((((((...((((((((+))))))))...)))))))) | 56.2 |
| CGACGTGCAACATGTGCTG+CAGCACATTAAGCACGTCG ((((((((...((((((((+))))))))...)))))))) | 49.2 |
| CGACGTGCCTGATGTGCTG+CAGCACATTCGGCACGTCG (((((((((..((((((((+))))))))..))))))))) | 54.7 |
| CGACGTGCTTGATGTGCTG+CAGCACATACGGCACGTCG ((((((((...((((((((+))))))))...)))))))) | 49.2 |
| CGACGTGCTGAATGTGCTG+CAGCACATACCGCACGTCG ((((((((.(.((((((((+)))))))).).)))))))) | 51.3 |
| CGACGTGCATCATGTGCTG+CAGCACATGATGCACGTCG (((((((((((((((((((+))))))))))))))))))) | 64.8 |
| CGACGTGCATAATGTGCTG+CAGCACATGTCGCACGTCG ((((((((...((((((((+))))))))...)))))))) | 52.2 |

| Substance | Tm [°C] |
| --- | --- |
| CGACGTGCGCCATGTGCTG+CAGCACATACCGCACGTCG (((((((((..((((((((+))))))))..))))))))) | 51 |
| CGACGTGCCTCATGTGCTG+CAGCACATGTGGCACGTCG (((((((((.(((((((((+))))))))).))))))))) | 59.8 |
| CGACGTGCTGAATGTGCTG+CAGCACATCTCGCACGTCG ((((((((...((((((((+))))))))...)))))))) | 50 |
| CGACGTGCGAAATGTGCTG+CAGCACATCAAGCACGTCG ((((((((...((((((((+))))))))...)))))))) | 52.3 |
| CGACGTGCATCATGTGCTG+CAGCACATACCGCACGTCG ((((((((...((((((((+))))))))...)))))))) | 46.6 |
| CGACGTGCGTGATGTGCTG+CAGCACATCCAGCACGTCG ((((((((..(((((((((+)))))))))..)))))))) | 55.5 |
| CGACGTGCTGTATGTGCTG+CAGCACATTTAGCACGTCG (((((((((..((((((((+))))))))..))))))))) | 51.5 |
| CGACGTGCGGGATGTGCTG+CAGCACATTTAGCACGTCG ((((((((...((((((((+))))))))...)))))))) | 53.4 |
| CGACGTGCCTGATGTGCTG+CAGCACATGGAGCACGTCG ((((((((...((((((((+))))))))...)))))))) | 51.6 |
| CGACGTGCCAGATGTGCTG+CAGCACATATGGCACGTCG ((((((((((.((((((((+)))))))).)))))))))) | 59.9 |
| CGACGTGCTCGATGTGCTG+CAGCACATCTTGCACGTCG ((((((((..(((((((((+)))))))))..)))))))) | 53.3 |
| CGACGTGCGTCATGTGCTG+CAGCACATATTGCACGTCG ((((((((...((((((((+))))))))...)))))))) | 49.2 |
| CGACGTGCTAAATGTGCTG+CAGCACATAGAGCACGTCG (((((((((..((((((((+))))))))..))))))))) | 52.9 |
| CGACGTGCCAGATGTGCTG+CAGCACATCTGGCACGTCG (((((((((((((((((((+))))))))))))))))))) | 66.5 |
| CGACGTGCAGTATGTGCTG+CAGCACATGCGGCACGTCG ((((((((.(.((((((((+)))))))).).)))))))) | 55.3 |
| CGACGTGCGAGATGTGCTG+CAGCACATCATGCACGTCG ((((((((..(((((((((+)))))))))..)))))))) | 56.7 |
| CGACGTGCTGCATGTGCTG+CAGCACATCATGCACGTCG ((((((((...((((((((+))))))))...)))))))) | 52.1 |
| CGACGTGCCTAATGTGCTG+CAGCACATGAGGCACGTCG ((((((((((.((((((((+)))))))).)))))))))) | 58.5 |
